From patent publication US20240270826A1 (NATIONAL RESEARCH COUNCIL OF CANADA, published 2024) come the findings set out here.

The target of experiment [1] is Human SARS-CoV-2_Wuhan S (SmT1) (SARS-CoV-2 (Wuhan), UniProt P0DTC2 14-1208). Kind of experiment: flow cytometry SVNA, VHH vs biotin-S binding to Vero E6 ACE2. For orientation: A flow cytometer gives signals particle by particle.
For experiment [2], the target named is T1, SARS-CoV-2 S2 (aa686-1208) (Wuhan) (SARS-CoV-2 Wuhan, UniProt P0DTC2 686-1208).
T1 construct: NRC; FLAG, 6xHis tags
Kind of experiment: SPR, antigen on chip. A general note: Surface plasmon resonance follows binding to a sensor surface in real time, without labels.

For experiment [3], the target named is T2, SARS-CoV-2 spike trimer S (Wuhan, SmT1) (SARS-CoV-2 Wuhan).
T2 construct: extracellular domain
Kind of experiment: SPR, antigen on chip.

Experiment [4] deals with T3, SARS-CoV-2 S1 (aa16-685) (Wuhan) (SARS-CoV-2 Wuhan, UniProt P0DTC2 16-685).
T3 construct: NRC; FLAG, 6xHis tags
Kind of experiment: SPR, antigen on chip.

B1: NRCoV2-05 VHH (VHH)
VHH: EVKLVQSGGGLVQPGGSLRLSCAASGFIFSNYAMNWVRQAPGKGLEWVSGINSGGGDTRYADSVKGRFTVSRDNAKNTLYLQMNSLKPEDTGVYYCSKGPVSSYYGSGYDYRGQGTQVTVSS
By IC50 is commonly meant the concentration that gives 50% inhibition. Higher therefore signals weaker potency. By IC99 is commonly meant the concentration at which the effect reaches the 99% level. Consider B1, for which, in experiment [1], the IC50 amounted to 9.5 nM, the 99% effect concentration (IC99) came out at 14.2 nM and the Imax % came out at 97%.

B2: NRCoV2-14 VHH (VHH)
VHH: EVQLVSSGGGLVQAGGSLRLSCEASGTTFSHYAVGWYRQAPGKQREWVASISVFGSTTYGGSVAGRFTISRDNDKNTVDLQMNSLKPEDTAVYYCHAVNADIGGDYWGQGTQVTVSS
As for B2, in experiment [1], the IC50 was found to be 21.3 nM, the concentration for an effect of 99% (IC99) was 17400 nM and the Imax % was found to be 54%.

B3: NRCoV2-10 VHH (VHH)
VHH: QLQLQESGGGLVQPGGSLTLSCAASGNTFSRSNMHWYRQAPGAQREWVAAISSRGISTYAYSAKGRFTISRDNAKNTVSLQMNSLKPEDTAVYYCYAADDLGDYWGQGTQVTVSS
In experiment [1], B3 displayed a concentration for half-maximal inhibition (IC50) of 16.1 nM, an IC99 of 121 nM and an Imax % of 50%.

B4: NRCoV2-15 VHH (VHH)
VHH: EVQLVSSGGGLVEAGGSLRLSCIASGSTSGRNTMGWFRQAPGKQREWVAIVSTSGATNYAGSVKGRFTLSRDNAKNAVYLQMNNLKPEDTAVYYCYAAYGGGGDYWGQGTQVTVSS
As for B4, in experiment [1], the concentration for half-maximal inhibition (IC50) is 12.1 nM, the IC99 came to 233 nM and the Imax % was found to be 44%.

B5: NRCoV2-SR02 VHH (VHH)
VHH: EVQLVDSGGGLVQAGGSLRLSCTASEFTLNYYSIGWFRQSPGKEREGVSCIRYSGGGIDYADSVKGRFTISRDNAKNTVYLTMNSLKPEDTAVYYCAADRLYSRACPTAGGRNYWGQGTQVTVSS
Broadly, the Kd is a measure of binding affinity in units of concentration. A high value points to weaker binding. What is called koff is the rate constant with which the complex falls apart. Broadly, the kon is a measure of how fast the partners come together. Low values mean slow association, high ones fast association. Take B5: the binding result in experiment [2] is reported as “no binding”. Further, in experiment [3], the dissociation constant Kd came out at 0.59 nM, the off-rate (koff) turned out to be 0.000571 s⁻¹ and the association rate constant (kon) worked out at 967000 M⁻¹ s⁻¹. In experiment [4], the Kd stood at 0.53 nM, the koff was determined as 0.000555 s⁻¹ and the kon worked out at 1.05e+06 M⁻¹ s⁻¹.

B6: NRCoV2-SR01 VHH (VHH)
VHH: EVQLVQSGGGSVQAGGSLRLSCVASGFTFDNYAIGWFRQAPGKEREGVSCISGNGGVTIYADSVKGRFTISRDNAKNLVYLQMNSLKPEDTAVYYCAATGIRSTWSVYGCSRLAGPYDYWGQGTQVTVSS
For the molecule B6, in experiment [2], the binding result is “no binding”. In experiment [3], binding was characterised by a dissociation constant (Kd) of 0.445 nM, the off-rate constant (koff) is 0.00123 s⁻¹ and the on-rate constant (kon) turned out to be 2.77e+06 M⁻¹ s⁻¹. Further, in experiment [4], binding was characterised by a dissociation constant (Kd) of 0.437 nM, the off-rate constant (koff) amounted to 0.00158 s⁻¹ and the kon was found to be 3.63e+06 M⁻¹ s⁻¹.

B7: NRCoV2-MRed05 VHH (VHH)
VHH: EVQLVESGGGLVQPGGSLRLSCAASGFTLDYYAIGWFRQAPGKEREGVSCISSSDGSTLYADSVKGRFTISRDNAKNTVYLQMNSLKPEDTAVYYCATGPQAYYSGSYYFQCPQAGMDYWGKGTQVTVSS
In experiment [1], B7 returned an IC50 of 15 nM, an IC99 of 184 nM and an Imax % of 88%.

B8: NRCoV2-MRed04 VHH (VHH)
VHH: EVQLVESGGGLVQPGRSLRLSCAASGNSFSISTMGWFRQAPGKERELVASIWSDTTTSYADSVKGRFTISTDNTRTKVYLQMSSLNPEDTAVYYCAADRGFVVRGQYDYWGQGTQVTVSS
In experiment [1], B8 gave a concentration for half-maximal inhibition (IC50) of 6.1 nM, an IC99 of 124 nM and an Imax % of 53%.

B9: NRCoV2-18 VHH (VHH)
VHH: EVQLVESGGGLVQAGGSLRLSCVASGITISGYNMAWWRQTRGKQTERVAFINSGGSTTYSDSVKGRFTISRDNGKNTAYLQMNSLNAEDTADYFCSLHTSHDYWGQGTQVTVSS
In experiment [1], B9 displayed a concentration for half-maximal inhibition (IC50) of 8.9 nM, an IC99 of 133 nM and an Imax % of 51%.
